Among the data in patent publication US20040048311A1 are lowest IgM concentration giving signal, lowest spotted S1C5 concentration giving signal and lowest printed S1C5 concentration giving signal values, retold here.

Assay [1] has as its target 38C13 IgM. Nature of the assay: antibody microarray on FAST slide, purified 38C13 IgM, detection with goat anti-mouse IgM HRP, chemiluminescence.
In assay [2] the target is 38C13 IgM. Nature of the assay: antibody microarray on FAST slide, 38C13 cell extract at 1:2000 dilution, detection with goat anti-mouse IgM HRP, chemiluminescence.

Regarding S1C5 anti-idiotype monoclonal antibody, in the assay with 38C13 IgM [1], the lowest IgM concentration giving signal is 0.1 µg/mL and the lowest spotted S1C5 concentration giving signal came to 25 µg/mL. Also, the lowest printed S1C5 concentration giving signal with 38C13 IgM [2] came to 50 µg/mL.
